The values that follow are results of earlier work, collected in publication PMC5100577.

In the data set the target is H2A-H2B dimer (Saccharomyces cerevisiae) (UniProt P04911). In words: fluorescence dequenching.
UniProt P04911, sequence (P04911 2-132, chain 1 of 2): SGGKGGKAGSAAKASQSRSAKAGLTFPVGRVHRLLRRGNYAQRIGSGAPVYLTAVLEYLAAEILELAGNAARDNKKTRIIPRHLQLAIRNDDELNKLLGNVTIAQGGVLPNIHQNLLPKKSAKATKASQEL
UniProt P04911, sequence (P02293 2-131, chain 2 of 2, further chain): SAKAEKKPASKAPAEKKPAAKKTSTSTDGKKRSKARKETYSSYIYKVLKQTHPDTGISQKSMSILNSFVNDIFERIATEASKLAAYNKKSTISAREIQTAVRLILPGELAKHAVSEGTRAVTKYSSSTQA

FACT (from UniProt P32558): the Kd was 21.4 nM.
